In patent US20260242478A1 (published 2026):
Where no end group is shown, it is not given here.

B1: Phage-2479 (peptide, not shown: large carriers)
peptide: GFPMCKPLWMCENL
modifications: cysteine pairing not given here; also: displayed on phage as fusion to pIII, pIII and linker sequence not given here
notes: Clonal phage of the Peptide-180 optimisation library, tested as crude supernatant
B2: Phage-2476 (peptide, not shown: large carriers)
peptide: YHNWCVPQWMCVGL
modifications: cysteine pairing not given here; also: displayed on phage as fusion to pIII, pIII and linker sequence not given here
notes: as for B1
B3: Phage-2477 (peptide, not shown: large carriers)
peptide: VEKWCIPQWMCSMD
modifications: cysteine pairing not given here; also: displayed on phage as fusion to pIII, pIII and linker sequence not given here
notes: as for B1
B4: Phage-2466 (peptide, not shown: large carriers)
peptide: VVKWCTPSWMCTGF
modifications: cysteine pairing not given here; also: displayed as fusion to phage pIII
notes: as for B1
B5: Phage-2469 (peptide, not shown: large carriers)
peptide: VSKWCTPAWMCSAM
modifications: cysteine pairing not given here; also: displayed as fusion to phage pIII
notes: as for B1
B6: Phage-2472 (peptide, not shown: large carriers)
peptide: FDKWCIPPWMCVGP
modifications: cysteine pairing not given here; also: displayed on phage as fusion to pIII, pIII and linker sequence not given here
notes: as for B1
B7: Phage-2475 (peptide, not shown: large carriers)
peptide: EHKWCTPLWMCEGL
modifications: cysteine pairing not given here; also: fused to phage pIII (clonal phage display)
notes: as for B1
B8: Phage-2478 (peptide, not shown: large carriers)
peptide: EMIRCIPDWMCMSY
modifications: cysteine pairing not given here; also: displayed on phage as fusion to pIII, pIII and linker sequence not given here
notes: as for B1
B9: Phage-2473 (peptide, not shown: large carriers)
peptide: PEHWCIPPWMCVVH
modifications: cysteine pairing not given here; also: displayed on phage as fusion to pIII, pIII and linker sequence not given here
notes: as for B1
B10: Phage-2471 (peptide, not shown: large carriers)
peptide: MEKWCIPDWMCLGN
modifications: cysteine pairing not given here; also: displayed as fusion to phage pIII
notes: as for B1
B11: Phage-2474 (peptide, not shown: large carriers)
peptide: DFHMCTPRWMCEGM
modifications: cysteine pairing not given here; also: displayed on phage as fusion to pIII, pIII and linker sequence not given here
notes: as for B1
B12: Phage-2470 (peptide, not shown: large carriers)
peptide: VDKLCRPAWMCVAS
modifications: cysteine pairing not given here; also: displayed as fusion to phage pIII
notes: as for B1
B13: Phage-2480 (peptide, not shown: large carriers)
peptide: PFKWCTPAWMCEVH
modifications: cysteine pairing not given here; also: displayed on phage as fusion to pIII, pIII and linker sequence not given here
notes: as for B1
B14: Phage-2467 (peptide, not shown: large carriers)
peptide: GDKWCIPDWMCVQS
modifications: cysteine pairing not given here; also: displayed as fusion to phage pIII
notes: as for B1
B15: Phage-2481 (peptide, not shown: large carriers)
peptide: WSNWCIPPWMCAMN
modifications: cysteine pairing not given here; also: displayed on phage as fusion to pIII, pIII and linker sequence not given here
notes: as for B1
B16: Phage-2468 (peptide, not shown: large carriers)
peptide: FEKWCIPAWMCEQV
modifications: cysteine pairing not given here; also: displayed as fusion to phage pIII
notes: as for B1
B17: Phage-2416 (peptide)
peptide: SERWCIPQWMCTAP
modifications: cysteine pairing not given here; also: displayed on bacteriophage by fusion to pIII
B18: Phage-2407 (peptide)
peptide: TVKWCVPPWMCSVP
B19: Phage-2411 (peptide)
peptide: QAKWCIPQWMCESY
B20: Phage-2413 (peptide)
peptide: LDMRCTPAWMCEGF
modifications: cysteine pairing not given here; also: displayed on bacteriophage by fusion to pIII
B21: Phage-2420 (peptide)
peptide: EIKWCIPSWMCNTL
modifications: cysteine pairing not given here; also: displayed as fusion to phage pIII
B22: Phage-2417 (peptide)
peptide: FDPWCIPLWMCEGM
modifications: cysteine pairing not given here; also: displayed on bacteriophage by fusion to pIII
B23: Phage-2408 (peptide)
peptide: VDHWCTPEWMCVMM
B24: Phage-2414 (peptide)
peptide: VEKWCTPPWMCRFD
modifications: cysteine pairing not given here; also: displayed on bacteriophage by fusion to pIII
B25: Phage-2409 (peptide)
peptide: YIKWCTPPWMCELM
B26: Phage-2412 (peptide)
peptide: GEKWCIPDWMCAAA
modifications: cysteine pairing not given here; also: displayed on bacteriophage by fusion to pIII
B27: Phage-2419 (peptide)
peptide: VAKWCIPSWMCETV
modifications: cysteine pairing not given here; also: displayed as fusion to phage pIII
B28: Phage-2410 (peptide)
peptide: MHHWCIPAWMCSTE
B29: Phage-2415 (peptide)
peptide: LWKWCTPPWMCEVS
modifications: cysteine pairing not given here; also: displayed on bacteriophage by fusion to pIII
B30: Phage-2418 (peptide)
peptide: FSKLCIPAWMCSEE
modifications: cysteine pairing not given here; also: displayed on bacteriophage by fusion to pIII

Target: T1, PSMA Fab (biotinylated (site not given))
T1 construct: Biotinylated PSMA Fab captured on neutravidin plates in the phage ELISA; also called Anti-PSMA Fab; 006 PSMA Fab
Assay: phage ELISA on captured biotinylated PSMA Fab, wells pre-incubated with PSMA antigen (competitor: PSMA); anti-M13 HRP detection

| Binder | Phage binding ELISA signal, Anti-PSMA Fab in presence of PSMA |
| --- | --- |
| B1 | 0.0667 |
| B2 | 0.127 |
| B3 | 0.0715 |
| B4 | 0.0837 |
| B5 | 0.099 |
| B6 | 0.0689 |
| B7 | 0.09 |
| B8 | 0.0624 |
| B9 | 0.513 |
| B10 | 0.0809 |
| B11 | 0.0622 |
| B12 | 0.0775 |
| B13 | 0.0594 |
| B14 | 0.0692 |
| B15 | 0.0771 |
| B16 | 0.0596 |

Target: T2, PSMA Fab (006 PSMA Fab)
T2 construct: In the phage ELISA the PSMA Fab was biotinylated and captured on neutravidin coated plates; also called Anti-PSMA Fab; anti-PSMA Fab
Assay: clonal phage ELISA on biotinylated PSMA Fab captured on neutravidin plates, anti-M13-HRP detection;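 also: crude clonal phage supernatants added to wells preincubated with PSMA antigen or with blocking buffer only (no wash between), briefly incubated, then washed before detecting bound phage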
Procedure: (§1) Clonal phage were harvested as crude supernatants and screened via standard ELISAs. […] Prior to the addition of clonal phage. wells were incubated with blocking buffer and PSMA antigen or blocking buffer alone. Without washing or aspirating, clonal phage supernatants were then added to the wells and incubated for a short time. Wells were then washed followed by detection of bound phage using a horse radish conjugated anti-M13 antibody.

| Binder | Phage binding ELISA signal, Anti-PSMA Fab |
| --- | --- |
| B17 | 1.34 |
| B18 | 1.36 |
| B19 | 1.35 |
| B20 | 1.34 |
| B21 | 1.33 |
| B22 | 1.34 |
| B23 | 1.36 |
| B24 | 1.34 |
| B25 | 1.35 |
| B26 | 1.34 |
| B27 | 1.33 |
| B28 | 1.35 |
| B29 | 1.34 |
| B30 | 1.34 |

Target: T1, PSMA Fab
Assay: phage ELISA: clonal phage supernatant on biotinylated PSMA Fab captured on neutravidin plate, blocking buffer alone; anti-M13 HRP detection;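 also: crude clonal phage supernatants added to wells preincubated with blocking buffer, incubated briefly, bound phage detected with a horseradish-conjugated anti-M13 antibody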
Procedure: as §1

| Binder | Phage binding ELISA signal, Anti-PSMA Fab |
| --- | --- |
| B1 | 1.23 |
| B2 | 1.23 |
| B3 | 1.23 |
| B4 | 1.24 |
| B5 | 1.24 |
| B6 | 1.24 |
| B7 | 1.23 |
| B8 | 1.23 |
| B9 | 1.24 |
| B10 | 1.24 |
| B11 | 1.24 |
| B12 | 1.24 |
| B13 | 1.23 |
| B14 | 1.24 |
| B15 | 1.23 |
| B16 | 1.24 |

Target: T2, PSMA Fab (006 PSMA Fab)
Assay: clonal phage ELISA on captured PSMA Fab, wells pre-incubated with PSMA antigen as competitor (column head not shown, assumed)

| Binder | Phage binding ELISA signal, Anti-PSMA Fab with PSMA antigen |
| --- | --- |
| B17 | 0.0763 |
| B18 | 0.0764 |
| B19 | 0.0648 |
| B20 | 0.0768 |
| B21 | 0.0772 |
| B22 | 0.0667 |
| B23 | 0.0963 |
| B24 | 0.074 |
| B25 | 0.15 |
| B26 | 0.0769 |
| B27 | 0.0735 |
| B28 | 0.0812 |
| B29 | 0.0864 |
| B30 | 0.0956 |
